# Measurements: US20050048066A1, “Identification of potential immunodominant acetylcholine receptor alpha subunit” (priority 2000, published 2005)
# Assays:
# [1] = target: HLA-DR2 (a mix of DRB1*1501 and DRB5*0101) (Homo sapiens, UniProt P01903+P01911+Q30154); test: DELFIA competitive binding assay, solubilized HLA-DR2; conditions: in words, from IC50 / plot of 1/IC50
# From the text: Measurement of the IC50 is preferably done by europium-streptavidin dissociation-enhanced lenthanide fluoroimmunoassay (DELFIA) and the IC50 typically calculated by four parameter fit analysis with the software program SOFTmax Pro.
# [2] = test system: HLA-DR3 (a mix of DRB1*0301 and DRB3*0101); test: DELFIA competitive binding assay, solubilized HLA-DR3; parameters: species or system human; conditions: in words, from IC50
# Protocol: The sequence of the AChRα subunit is shown with each of the transmembrane regions (M1-M4) indicated by a shaded box.) Ten-fold dilutions (preferably 1-100,000 nM) of unlabeled AChRα peptides were co-incubated at pH 5.5 with the biotinylated myelin basic protein peptide MBP 84-102, and the IC50 of binding to solubilized HLA-DR2 (a mix of DRB1*1501 and DRB5*0101) or HLA-DR3 (a mix of DRB1*0301 and DRB3*0101) was measured. Measurement of the IC50 is preferably done by europium-streptavidin dissociation-enhanced lenthanide fluoroimmunoassay (DELFIA) and the IC50 typically calculated by four parameter fit analysis with the software program SOFTmax Pro. FIG. 2 lists the IC50s of each AChRα peptide binding to HLA-DR2 and HLA-DR3.
relative affinity for HLA-DR2 [1],affinity for HLA-DR3 [2],Substance
high relative affinity,,"AChRα 113-126: synthetic peptide fragment of the acetylcholine receptor α subunit, residues 113-126 (TGHITWTPPAIFKS)"
,high affinity,"AChRα 145-163: synthetic peptide fragment of the acetylcholine receptor α subunit, residues 145-163 (KLGTWTYDGSVVAINPESD)"
,high affinity,"AChRα 195-212: synthetic peptide fragment of the acetylcholine receptor α subunit, residues 195-212"
high relative affinity,,"AChRα 310-327: synthetic peptide fragment of the acetylcholine receptor α subunit, residues 310-327 (NWVRKVFIDTIPNIMFFS)"
high relative affinity,,"AChRα 419-437: synthetic peptide fragment of the acetylcholine receptor α subunit, residues 419-437 (IIGTLAVFAGRLIELNQQG)"
